Test results reported in publication PMC9482650, “Quantitative fragmentomics allow affinity mapping of interactomes” (Nature Communications, 2022).

T1: HTRA3, P83110
T1 sequence (P83110 354-453, limits assumed, looked up): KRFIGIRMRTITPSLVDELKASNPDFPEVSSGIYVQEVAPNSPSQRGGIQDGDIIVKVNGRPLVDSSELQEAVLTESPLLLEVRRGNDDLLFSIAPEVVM

T2: PARD3B_1, Q8TEW8
T2 sequence (Q8TEW8 196-299, limits assumed, looked up): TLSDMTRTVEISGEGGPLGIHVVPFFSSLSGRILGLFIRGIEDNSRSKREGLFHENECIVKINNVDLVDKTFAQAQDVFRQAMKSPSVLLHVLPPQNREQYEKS

T3: PTPN13_1, Q12923
T3 sequence (Q12923 1088-1188, limits assumed, looked up): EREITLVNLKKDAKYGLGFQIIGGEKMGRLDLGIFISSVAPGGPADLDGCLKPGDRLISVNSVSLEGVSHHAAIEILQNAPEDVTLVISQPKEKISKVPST

T4: LIN7B, Q9HAP6
T4 sequence (Q9HAP6 88-185, limits assumed, looked up): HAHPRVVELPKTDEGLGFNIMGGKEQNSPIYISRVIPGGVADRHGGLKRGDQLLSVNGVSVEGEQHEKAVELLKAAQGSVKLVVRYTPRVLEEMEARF

T5: RHPN1, Q8TCX5
T5 sequence (Q8TCX5 508-602, limits assumed, looked up): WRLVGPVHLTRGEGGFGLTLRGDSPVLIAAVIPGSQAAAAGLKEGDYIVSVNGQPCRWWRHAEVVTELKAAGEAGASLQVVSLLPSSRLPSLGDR

T6: DLG3_3, Q92796
T6 sequence (Q92796 374-475, limits assumed, looked up): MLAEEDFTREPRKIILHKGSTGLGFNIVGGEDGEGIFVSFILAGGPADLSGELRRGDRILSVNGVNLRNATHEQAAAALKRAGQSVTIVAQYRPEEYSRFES

T7: GRIP1_2, Q9Y3R0
T7 sequence (Q9Y3R0 145-248, limits assumed, looked up): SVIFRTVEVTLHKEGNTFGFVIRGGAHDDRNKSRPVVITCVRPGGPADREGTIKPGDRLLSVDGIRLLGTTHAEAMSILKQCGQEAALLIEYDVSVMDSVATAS

T8: GRIP1_4, Q9Y3R0
T8 sequence (Q9Y3R0 467-571, limits assumed, looked up): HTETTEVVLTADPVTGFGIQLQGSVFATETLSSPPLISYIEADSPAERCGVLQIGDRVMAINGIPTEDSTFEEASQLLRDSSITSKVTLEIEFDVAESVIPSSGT

T9: MPDZ_10, O75970
T9 sequence (O75970 1624-1722, limits assumed, looked up): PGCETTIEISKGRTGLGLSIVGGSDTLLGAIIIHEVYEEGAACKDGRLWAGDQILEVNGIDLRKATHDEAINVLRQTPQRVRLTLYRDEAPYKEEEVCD

T10: DFNB31_2, Q9P202
T10 sequence (Q9P202 274-371, limits assumed, looked up): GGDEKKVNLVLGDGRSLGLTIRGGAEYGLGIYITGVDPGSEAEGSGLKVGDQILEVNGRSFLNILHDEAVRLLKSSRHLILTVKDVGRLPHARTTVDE

T11: SYNJ2BP, P57105
T11 sequence (P57105 8-110, limits assumed, looked up): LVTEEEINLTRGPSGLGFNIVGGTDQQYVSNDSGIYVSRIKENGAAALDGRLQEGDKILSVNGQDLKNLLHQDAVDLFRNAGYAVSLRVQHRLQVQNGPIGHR

T12: DLG3_2, Q92796
T12 sequence (Q92796 221-321, limits assumed, looked up): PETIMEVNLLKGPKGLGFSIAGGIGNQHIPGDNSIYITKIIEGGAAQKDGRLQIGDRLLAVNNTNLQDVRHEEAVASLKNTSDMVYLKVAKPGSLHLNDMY


What follows are binders tested against T1, HTRA3, P83110 (assay: holdup assay). Details: plain residues with an end cap or a label only (N-terminal biotin on a linker: ado-ado).
Design: key: below the threshold = too weak to quantify, mostly under pKd 3.1 to 4
In the case of ATKDKKITTV [EXOC4, Q96A65], the pKd is reported as “below the threshold”.
In the case of SRPHTNETSL [MCC, P23508], the pKd is reported as “below the threshold”.

What follows are binders tested against GORASP2, Q9H8Y8 (assay: holdup assay). Details: plain residues with an end cap or a label only (N-terminal biotin on a linker: ado-ado).
Design: key: below the threshold = too weak to quantify, mostly under pKd 3.1 to 4
A pKd of 4.64 was found for ATKDKKITTV [EXOC4, Q96A65] in this work.
In the case of SRPHTNETSL [MCC, P23508], the pKd is reported as “below the threshold”.

Each binder was assayed against LAP2, Q96RT1 (assay: holdup assay). Details: plain residues with an end cap or a label only (N-terminal biotin on a linker: ado-ado).
Sequence of LAP2, Q96RT1 (Q96RT1 other isoform, or with tags, fused parts or gaps): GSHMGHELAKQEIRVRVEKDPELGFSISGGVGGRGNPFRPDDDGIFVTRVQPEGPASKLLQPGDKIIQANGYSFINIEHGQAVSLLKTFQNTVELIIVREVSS
Design: key: below the threshold = too weak to quantify, mostly under pKd 3.1 to 4
A pKd of 3.54 was found for ATKDKKITTV [EXOC4, Q96A65] in this work.
For SRPHTNETSL [MCC, P23508], the pKd was “below the threshold”.

These binders were tested against NOS1, P29475 (assay: holdup assay). Details: plain residues with an end cap or a label only (N-terminal biotin on a linker: ado-ado).
Sequence of NOS1, P29475 (P29475 9-101): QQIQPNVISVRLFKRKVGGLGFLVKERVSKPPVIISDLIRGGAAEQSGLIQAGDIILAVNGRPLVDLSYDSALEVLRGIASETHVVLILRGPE
Design: key: below the threshold = too weak to quantify, mostly under pKd 3.1 to 4
A pKd of 3.69 was found for ATKDKKITTV [EXOC4, Q96A65] in this work.
In the case of SRPHTNETSL [MCC, P23508], the pKd is reported as “below the threshold”.

The binders below were run against T2, PARD3B_1, Q8TEW8 (assay: holdup assay). Details: plain residues with an end cap or a label only (N-terminal biotin on a linker: ado-ado).
Design: key: below the threshold = too weak to quantify, mostly under pKd 3.1 to 4
For ATKDKKITTV [EXOC4, Q96A65], the pKd was “below the threshold”.
A pKd of 3.7 was found for SRPHTNETSL [MCC, P23508] in this work.

What follows are binders tested against T3, PTPN13_1, Q12923 (assay: holdup assay). Details: plain residues with an end cap or a label only (N-terminal biotin on a linker: ado-ado).
Design: key: below the threshold = too weak to quantify, mostly under pKd 3.1 to 4
ATKDKKITTV [EXOC4, Q96A65] was tested, and the pKd was “below the threshold”.
In the case of SRPHTNETSL [MCC, P23508], the pKd is reported as “below the threshold”.

Each binder was assayed against T4, LIN7B, Q9HAP6 (assay: holdup assay). Details: plain residues with an end cap or a label only (N-terminal biotin on a linker: ado-ado).
Design: key: below the threshold = too weak to quantify, mostly under pKd 3.1 to 4
In the case of ATKDKKITTV [EXOC4, Q96A65], the pKd is reported as “below the threshold”.
A pKd of 3.64 was found for SRPHTNETSL [MCC, P23508] in this work.

These binders were tested against T5, RHPN1, Q8TCX5 (assay: holdup assay). Details: plain residues with an end cap or a label only (N-terminal biotin on a linker: ado-ado).
Design: key: below the threshold = too weak to quantify, mostly under pKd 3.1 to 4
A pKd of 4.08 was found for ATKDKKITTV [EXOC4, Q96A65] in this work.
A pKd of 4.64 was found for SRPHTNETSL [MCC, P23508] in this work.

Each binder was assayed against TJP2_1, Q9UDY2 (assay: holdup assay). Details: plain residues with an end cap or a label only (N-terminal biotin on a linker: ado-ado).
Sequence of TJP2_1, Q9UDY2 (Q9UDY2 24-128): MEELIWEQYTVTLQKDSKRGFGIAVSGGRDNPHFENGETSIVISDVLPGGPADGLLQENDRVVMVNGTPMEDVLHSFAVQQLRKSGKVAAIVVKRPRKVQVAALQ
Design: key: below the threshold = too weak to quantify, mostly under pKd 3.1 to 4
A pKd of 3.87 was found for ATKDKKITTV [EXOC4, Q96A65] in this work.
With SRPHTNETSL [MCC, P23508] the pKd was “below the threshold”.

Each binder was assayed against Inadl_9, Q8NI35 (assay: holdup assay). Details: plain residues with an end cap or a label only (N-terminal biotin on a linker: ado-ado).
Sequence of Inadl_9, Q8NI35 (Q8NI35 1530-1615): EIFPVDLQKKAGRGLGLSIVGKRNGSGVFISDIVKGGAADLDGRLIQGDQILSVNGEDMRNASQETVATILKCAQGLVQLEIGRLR
Design: key: below the threshold = too weak to quantify, mostly under pKd 3.1 to 4
A pKd of 3.63 was found for ATKDKKITTV [EXOC4, Q96A65] in this work.
In the case of SRPHTNETSL [MCC, P23508], the pKd is reported as “below the threshold”.

What follows are binders tested against HTRA1, Q92743 (assay: holdup assay). Details: plain residues with an end cap or a label only (N-terminal biotin on a linker: ado-ado).
Sequence of HTRA1, Q92743 (Q92743 360-477): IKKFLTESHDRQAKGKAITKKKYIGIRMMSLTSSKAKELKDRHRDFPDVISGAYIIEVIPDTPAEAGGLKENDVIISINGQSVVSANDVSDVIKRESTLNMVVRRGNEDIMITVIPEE
Design: key: below the threshold = too weak to quantify, mostly under pKd 3.1 to 4
A pKd of 4.6 was found for ATKDKKITTV [EXOC4, Q96A65] in this work.
For SRPHTNETSL [MCC, P23508], the pKd was “below the threshold”.

What follows are binders tested against T6, DLG3_3, Q92796 (assay: holdup assay). Details: plain residues with an end cap or a label only (N-terminal biotin on a linker: ado-ado).
Design: key: below the threshold = too weak to quantify, mostly under pKd 3.1 to 4
A pKd of 4.56 was found for ATKDKKITTV [EXOC4, Q96A65] in this work.
A pKd of 3.95 was found for SRPHTNETSL [MCC, P23508] in this work.

Each binder was assayed against T7, GRIP1_2, Q9Y3R0 (assay: holdup assay). Details: plain residues with an end cap or a label only (N-terminal biotin on a linker: ado-ado).
Design: key: below the threshold = too weak to quantify, mostly under pKd 3.1 to 4
With ATKDKKITTV [EXOC4, Q96A65] the pKd was “below the threshold”.
With SRPHTNETSL [MCC, P23508] the pKd was “below the threshold”.

The binders below were run against T8, GRIP1_4, Q9Y3R0 (assay: holdup assay). Details: plain residues with an end cap or a label only (N-terminal biotin on a linker: ado-ado).
Design: key: below the threshold = too weak to quantify, mostly under pKd 3.1 to 4
A pKd of 3.48 was found for ATKDKKITTV [EXOC4, Q96A65] in this work.
SRPHTNETSL [MCC, P23508] was tested, and the pKd was “below the threshold”.

The binders below were run against NHERF4_4, Q86UT5 (assay: holdup assay). Details: plain residues with an end cap or a label only (N-terminal biotin on a linker: ado-ado).
Sequence of NHERF4_4, Q86UT5 (Q86UT5 464-550): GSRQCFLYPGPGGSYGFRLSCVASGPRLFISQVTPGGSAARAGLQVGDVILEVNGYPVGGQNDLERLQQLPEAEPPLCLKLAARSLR
Design: key: below the threshold = too weak to quantify, mostly under pKd 3.1 to 4
A pKd of 3.99 was found for ATKDKKITTV [EXOC4, Q96A65] in this work.
SRPHTNETSL [MCC, P23508] was tested, and the pKd was “below the threshold”.

The binders below were run against TJP1_3, Q07157 (assay: holdup assay). Details: plain residues with an end cap or a label only (N-terminal biotin on a linker: ado-ado).
Sequence of TJP1_3, Q07157 (Q07157 416-512): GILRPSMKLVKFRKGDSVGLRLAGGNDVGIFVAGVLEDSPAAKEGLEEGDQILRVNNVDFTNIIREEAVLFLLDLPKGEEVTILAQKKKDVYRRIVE
Design: key: below the threshold = too weak to quantify, mostly under pKd 3.1 to 4
With ATKDKKITTV [EXOC4, Q96A65] the pKd was “below the threshold”.
In the case of SRPHTNETSL [MCC, P23508], the pKd is reported as “below the threshold”.

Each binder was assayed against T9, MPDZ_10, O75970 (assay: holdup assay). Details: plain residues with an end cap or a label only (N-terminal biotin on a linker: ado-ado).
Design: key: below the threshold = too weak to quantify, mostly under pKd 3.1 to 4
A pKd of 3.95 was found for ATKDKKITTV [EXOC4, Q96A65] in this work.
With SRPHTNETSL [MCC, P23508] the pKd was “below the threshold”.

The binders below were run against T10, DFNB31_2, Q9P202 (assay: holdup assay). Details: plain residues with an end cap or a label only (N-terminal biotin on a linker: ado-ado).
Design: key: below the threshold = too weak to quantify, mostly under pKd 3.1 to 4
For ATKDKKITTV [EXOC4, Q96A65], the pKd was “below the threshold”.
SRPHTNETSL [MCC, P23508] was tested, and the pKd was “below the threshold”.

Each binder was assayed against T11, SYNJ2BP, P57105 (assay: holdup assay). Details: plain residues with an end cap or a label only (N-terminal biotin on a linker: ado-ado).
Design: key: below the threshold = too weak to quantify, mostly under pKd 3.1 to 4
A pKd of 4.14 was found for ATKDKKITTV [EXOC4, Q96A65] in this work.
A pKd of 4.84 was found for SRPHTNETSL [MCC, P23508] in this work.

What follows are binders tested against Inadl_5, Q8NI35 (assay: holdup assay). Details: plain residues with an end cap or a label only (N-terminal biotin on a linker: ado-ado).
Sequence of Inadl_5, Q8NI35 (Q8NI35 673-780): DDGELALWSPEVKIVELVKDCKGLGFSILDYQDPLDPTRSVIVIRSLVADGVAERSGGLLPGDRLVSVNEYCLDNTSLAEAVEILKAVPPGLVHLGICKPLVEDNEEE
Design: key: below the threshold = too weak to quantify, mostly under pKd 3.1 to 4
In the case of ATKDKKITTV [EXOC4, Q96A65], the pKd is reported as “below the threshold”.
In the case of SRPHTNETSL [MCC, P23508], the pKd is reported as “below the threshold”.

These binders were tested against Inadl_10, Q8NI35 (assay: holdup assay). Details: plain residues with an end cap or a label only (N-terminal biotin on a linker: ado-ado).
Sequence of Inadl_10, Q8NI35 (Q8NI35 1673-1763): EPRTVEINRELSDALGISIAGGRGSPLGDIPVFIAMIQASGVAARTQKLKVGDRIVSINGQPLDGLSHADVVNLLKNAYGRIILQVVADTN
Design: key: below the threshold = too weak to quantify, mostly under pKd 3.1 to 4
With ATKDKKITTV [EXOC4, Q96A65] the pKd was “below the threshold”.
For SRPHTNETSL [MCC, P23508], the pKd was “below the threshold”.

Each binder was assayed against DLG2_2, Q15700 (assay: holdup assay). Details: plain residues with an end cap or a label only (N-terminal biotin on a linker: ado-ado).
Sequence of DLG2_2, Q15700 (Q15700 189-283): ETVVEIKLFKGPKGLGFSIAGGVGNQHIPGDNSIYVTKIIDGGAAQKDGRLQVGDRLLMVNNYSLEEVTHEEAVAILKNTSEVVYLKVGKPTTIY
Design: key: below the threshold = too weak to quantify, mostly under pKd 3.1 to 4
A pKd of 5.75 was found for ATKDKKITTV [EXOC4, Q96A65] in this work.
With SRPHTNETSL [MCC, P23508] the pKd was “below the threshold”.

Each binder was assayed against DLG4_2, P78352 (assay: holdup assay). Details: plain residues with an end cap or a label only (N-terminal biotin on a linker: ado-ado).
Sequence of DLG4_2, P78352 (P78352 155-259): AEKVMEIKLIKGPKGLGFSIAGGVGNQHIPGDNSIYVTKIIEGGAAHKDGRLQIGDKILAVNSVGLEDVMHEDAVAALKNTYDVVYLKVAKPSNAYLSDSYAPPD
Design: key: below the threshold = too weak to quantify, mostly under pKd 3.1 to 4
A pKd of 5.85 was found for ATKDKKITTV [EXOC4, Q96A65] in this work.
A pKd of 3.83 was found for SRPHTNETSL [MCC, P23508] in this work.

The binders below were run against IL16_1, Q14005 (assay: holdup assay). Details: plain residues with an end cap or a label only (N-terminal biotin on a linker: ado-ado).
Sequence of IL16_1, Q14005 (Q14005 210-306): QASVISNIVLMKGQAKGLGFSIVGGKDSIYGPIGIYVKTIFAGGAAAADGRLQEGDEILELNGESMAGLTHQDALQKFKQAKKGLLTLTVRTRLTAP
Design: key: below the threshold = too weak to quantify, mostly under pKd 3.1 to 4
In the case of ATKDKKITTV [EXOC4, Q96A65], the pKd is reported as “below the threshold”.
With SRPHTNETSL [MCC, P23508] the pKd was “below the threshold”.

What follows are binders tested against T12, DLG3_2, Q92796 (assay: holdup assay). Details: plain residues with an end cap or a label only (N-terminal biotin on a linker: ado-ado).
Design: key: below the threshold = too weak to quantify, mostly under pKd 3.1 to 4
A pKd of 5.28 was found for ATKDKKITTV [EXOC4, Q96A65] in this work.
A pKd of 3.72 was found for SRPHTNETSL [MCC, P23508] in this work.
